Patent US20110129476A1 (MAX PLANCK GESELLSCHAFT ZUR FORDERUNG DER WISSENSCHAFTEN E V, published 2011)

Columns and labels:
[1] = target: RACK1 (receptor for activated C kinase 1), endogenous protein of murine K46 B cells (mouse, UniProt P68040 1-317); assay: reciprocal co-immunoprecipitation (α-RACK1; α-MZB1 5C11 Sepharose) from membrane and cytosolic fractions of K46 B cells, immunoblot
[2] = target: T1, ERp57, endogenous protein of murine K46 B cells (mouse, UniProt P27773 25-505); assay: formaldehyde crosslinking, α-MZB1 immunoprecipitation and mass spectrometry; co-immunoprecipitation of endogenous proteins from K46 extracts
T1 sequence (looked up): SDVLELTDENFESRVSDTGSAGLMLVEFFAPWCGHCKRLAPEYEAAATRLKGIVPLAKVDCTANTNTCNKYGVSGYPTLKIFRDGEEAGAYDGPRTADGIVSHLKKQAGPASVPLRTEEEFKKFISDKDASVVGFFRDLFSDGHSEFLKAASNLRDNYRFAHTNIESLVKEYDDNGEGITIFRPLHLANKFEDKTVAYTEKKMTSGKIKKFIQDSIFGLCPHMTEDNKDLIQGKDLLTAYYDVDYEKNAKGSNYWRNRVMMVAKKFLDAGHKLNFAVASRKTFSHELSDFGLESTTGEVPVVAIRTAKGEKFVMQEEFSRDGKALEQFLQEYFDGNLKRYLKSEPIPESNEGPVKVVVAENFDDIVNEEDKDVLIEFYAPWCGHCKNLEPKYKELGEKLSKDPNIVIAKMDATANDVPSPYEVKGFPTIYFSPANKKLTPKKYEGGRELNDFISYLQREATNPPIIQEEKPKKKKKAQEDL
Method: (§1) Approximately […] of K46 mature B cells were cultured until reaching the exponential growth phase, harvested and in vivo formaldehyde crosslinking was performed by adding 1% formaldehyde (final concentration) directly to the K46 cell culture. Cells were incubated for 10 min at 37° C. and 5% CO₂ and the crosslinking reaction was quenched by addition of 2.5M glycine with a final concentration of 125 mM. After crosslinking, cells were collected, washed with ice-cold PBS and frozen at −80° C. prior to lysis. […] The immunoprecipitated proteins were eluted with sample buffer and separated on a 4%-12% gradient SDS-PAGE. The gel was silver stained. The marked bands (arrow) were cut out and prepared for mass spectrometry analysis.

[3] = target: GRP94 (Endoplasmin), endogenous protein of murine K46 B cells (mouse, UniProt P08113 22-802); assay: as above
Method: as §1

[4] = target: T2, ERp44, endogenous protein of murine K46 B cells (mouse, UniProt Q9D1Q6 30-406); assay: as above
T2 sequence (looked up): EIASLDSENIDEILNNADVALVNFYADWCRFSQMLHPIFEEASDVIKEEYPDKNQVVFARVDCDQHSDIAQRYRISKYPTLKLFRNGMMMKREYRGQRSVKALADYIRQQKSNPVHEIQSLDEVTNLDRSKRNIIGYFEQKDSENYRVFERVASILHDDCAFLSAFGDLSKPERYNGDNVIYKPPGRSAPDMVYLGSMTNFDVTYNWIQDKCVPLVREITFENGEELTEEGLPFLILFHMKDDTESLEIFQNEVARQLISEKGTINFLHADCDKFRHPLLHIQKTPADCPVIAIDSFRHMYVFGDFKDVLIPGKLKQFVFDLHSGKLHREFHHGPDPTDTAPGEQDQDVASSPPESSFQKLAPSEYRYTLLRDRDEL
Method: as §1

Measured: binding result

GRP94 (Endoplasmin), endogenous protein of murine K46 B cells, sequence (P08113 22-802 limits assumed): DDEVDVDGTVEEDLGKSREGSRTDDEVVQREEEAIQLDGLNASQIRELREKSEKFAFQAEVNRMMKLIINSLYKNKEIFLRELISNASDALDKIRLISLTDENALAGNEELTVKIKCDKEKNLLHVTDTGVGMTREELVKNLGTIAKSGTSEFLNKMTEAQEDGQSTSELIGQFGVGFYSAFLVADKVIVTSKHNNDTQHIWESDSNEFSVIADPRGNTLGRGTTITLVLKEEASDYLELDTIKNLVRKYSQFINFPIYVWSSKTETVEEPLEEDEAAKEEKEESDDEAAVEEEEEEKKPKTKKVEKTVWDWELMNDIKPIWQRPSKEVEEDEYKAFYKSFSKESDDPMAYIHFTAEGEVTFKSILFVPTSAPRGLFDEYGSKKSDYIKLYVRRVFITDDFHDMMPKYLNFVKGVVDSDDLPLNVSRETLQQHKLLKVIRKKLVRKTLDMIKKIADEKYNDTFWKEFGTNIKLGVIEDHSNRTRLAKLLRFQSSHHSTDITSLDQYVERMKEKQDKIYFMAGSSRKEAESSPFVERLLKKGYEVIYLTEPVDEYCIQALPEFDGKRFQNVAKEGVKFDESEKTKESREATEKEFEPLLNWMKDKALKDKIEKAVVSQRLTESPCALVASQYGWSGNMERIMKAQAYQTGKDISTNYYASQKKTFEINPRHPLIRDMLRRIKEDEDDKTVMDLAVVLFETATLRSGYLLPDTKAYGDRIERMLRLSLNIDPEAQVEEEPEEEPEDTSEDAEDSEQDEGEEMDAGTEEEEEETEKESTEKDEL

B1: MZB1 (marginal zone B1 B cell factor 1), endogenous protein of murine K46 mature B cells (other)
chain: GDRVSLSASAPTLDDEEKYSAHMPAHLRCDACRAVAFQMGQRLAKAEAKSHTPDASGLQELSESTYTDVLDQTCSQNWQSYGVHEVNQMKRLTGPGLSKGPEPRISVMISGGPWPNRLSKTCFHYLGEFGEDQIYEAYRQGQANLEALLCGGTHGPCSQEILAQREEL
notes: Endogenous protein in K46 cell extracts (whole cell, membrane or cytosolic fraction); also called AL1
binds: all assays above
